This note sets out measurements from PMC10417383, “DNA-Binding Activity of CAMTA3 Is Essential for Its Function: Identification of Critical Amino Acids for Its Transcriptional Activity”.

The target in the data set is T1, CAMTA3 CG-1 WT (Arabidopsis thaliana, UniProt Q8GSA7 1-153).
T1 sequence: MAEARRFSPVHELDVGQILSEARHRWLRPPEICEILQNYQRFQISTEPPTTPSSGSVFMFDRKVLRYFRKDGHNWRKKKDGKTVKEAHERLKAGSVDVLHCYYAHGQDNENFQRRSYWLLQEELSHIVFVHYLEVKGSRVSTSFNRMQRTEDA
Kind of data set: EMSA; complex detected from 25 ng protein, good binding at 50 ng or more; 20 fmol probe; reduced by unlabeled PDF1.4 competitor; 1X LightShift EMSA binding buffer, 50 ng/ul poly(dI-dC), 20 fmol probe in 20 ul, +/- 4 pmol unlabeled DNA, room temperature 30 min; 5% native PAGE, 0.5X TBE; pH and salt not given. Particulars: protein: recombinant; tags: His (pET28a); label: 3'-biotin on strand 1; blunt. For orientation: A gel shift assay detects complexes by their altered migration in electrophoresis.

B1: PDF1.4 promoter probe (dsDNA)
DNA 1: CGTGAAAGTCACGCGCCAAGAACAAA
DNA 2: TTTGTTCTTGGCGCGTGACTTTCACG
Take B1: the binding result is given as “binds”.
